Assay results as given in patent publication US20020192796A1.

Target: HP1032 protein, sigma28 factor of RNA polymerase (FliA) of Helicobacter pylori (Helicobacter pylori strain 26695)
Assay: cell-based or functional assay

**Q.** Which flaA mRNA, RNA slot blot hybridization, HP1122-inactivated strain against wild type does the source give for “HP1122 protein, anti-sigma28 factor (FlgM) of Helicobacter pylori” here?
**A.** 2.5 fold

**Q.** What about the fold decrease in flaA mRNA, RNA slot blot hybridization, HP1122-overexpressing N6 strain against wild type of the same substance?
**A.** 2 fold
